Test results from the supplement of paper PMC10126150.
± gives the standard deviation of the averaged measurements.

Test system: ATP
Assay: switch fluorescence ratio, 500 uM ATP over buffer (Cy3 cluster intensity, sum of 5 cycles each) (fold (ratio)); higher = stronger signal-on switching upon ATP binding; sequences stand for … in TCGTCGGCAGCGTCAGATGTGTATAAGAGACAGTTTTTTTTTTTTTTTTTTTTTTTTT…TC
Conditions: aptamer strand: ATP DNA aptamer (quencher-CACCTGGGGGAGTATTGCGGAGGAAGG + anchor), 100 nM annealed; ATP concentration: 500 uM
Summary of the method: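 Cy3-labelled switching-strand clusters on a modified Illumina MiSeq flow-cell were annealed to 100 nM quencher-labelled ATP aptamer and imaged first in selection buffer, then after 15 min with 500 uM ATP at 22 °C. NaOH stripping and re-annealing separated each of five buffer/ATP cycles, and clusters outside 100-1000 RFU were excluded. The fluorescence ratio sums target-cycle Cy3 intensity over buffer-cycle Cy3 intensity per cluster and averages it per switch-domain sequence.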
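Note: ATP exposure 15 min at 22 °C before imaging.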

| Sequence | switch fluorescence ratio |
| --- | --- |
| AGGGCGCTG | 0.9885 ± 0.0045 |
| AGGGCGTCGA | 0.986 ± 0.034 |
| AGGGCGTGGC | 0.9876 ± 0.0018 |
| AGGGCGTTTG | 0.998 ± 0.018 |
| AGGGCTAAAT | 0.995 ± 0.025 |
| AGGGCTGACG | 1.02 ± 0.024 |
| AGGGCTGGAT | 1.06 ± 0.12 |
| AGGGCTTTCC | 1.075 ± 0.007 |
| AGGGGAAGCT | 1.03 ± 0.081 |
| AGGGGAAGTC | 0.953 ± 0.015 |
| AGGGGAATAA | 0.997 ± 0.015 |
| AGGGGAATG | 1 ± 0.022 |
| AGGGGAATGC | 1.09 ± 0.084 |
| AGGGGAATTA | 1.026 ± 0.0047 |
| AGGGGACAAA | 1 ± 0.035 |
| AGGGGACTGT | 1.01 ± 0.047 |
| AGGGGAGATG | 0.991 ± 0.048 |
| AGGGGAGGAA | 0.994 ± 0.013 |
| AGGGGAGGGC | 0.998 ± 0.042 |
| AGGGGAGTAA | 0.996 ± 0.023 |
| AGGGGATGGG | 1.03 ± 0.033 |
| AGGGGCAAAG | 1.01 ± 0.013 |
| AGGGGCATGG | 0.998 ± 0.04 |
| AGGGGCCGGG | 1.05 ± 0.12 |
| AGGGGCCTGT | 0.962 ± 0.037 |

| Sequence | switch fluorescence ratio |
| --- | --- |
| AGGGGCGAGA | 0.999 ± 0.013 |
| AGGGGCGGAG | 0.9743 ± 0.0035 |
| AGGGGCTCGT | 1 ± 0.012 |
| AGGGGCTGAA | 0.986 ± 0.042 |
| AGGGGCTTGT | 0.979 ± 0.024 |
| AGGGGGAATA | 1.02 ± 0.011 |
| AGGGGGACGG | 0.987 ± 0.023 |
| AGGGGGATGG | 0.996 ± 0.013 |
| AGGGGGCAAC | 1.04 ± 0.03 |
| AGGGGGCGTA | 0.9896 ± 0.0086 |
| AGGGGGCGTG | 1.03 ± 0.031 |
| AGGGGGCTAT | 1.02 ± 0.015 |
| AGGGGGCTCG | 1 ± 0.024 |
| AGGGGGCTGG | 0.977 ± 0.018 |
| AGGGGGGATT | 1 ± 0.019 |
| AGGGGGGCCC | 1 ± 0.037 |
| AGGGGGGGAA | 1.01 ± 0.032 |
| AGGGGGGGTG | 1.05 ± 0.11 |
| AGGGGGGTAA | 0.993 ± 0.026 |
| AGGGGGGTG | 1 ± 0.039 |
| AGGGGGTCGT | 0.98 ± 0.017 |
| AGGGGGTTAA | 0.996 ± 0.017 |
| AGGGGGTTGA | 1.03 ± 0.032 |
| AGGGGGTTGC | 1.01 ± 0.026 |
| AGGGGGTTTC | 1 ± 0.022 |

| Sequence | switch fluorescence ratio |
| --- | --- |
| AGGGGTAACG | 0.9807 ± 0.0098 |
| AGGGGTAGTA | 1.03 ± 0.04 |
| AGGGGTAGTG | 0.98 ± 0.019 |
| AGGGGTATAT | 1.02 ± 0.028 |
| AGGGGTATTT | 1.01 ± 0.041 |
| AGGGGTGAGC | 1.02 ± 0.072 |
| AGGGGTGCCG | 1.05 ± 0.026 |
| AGGGGTGGCG | 1.02 ± 0.014 |
| AGGGGTGGTT | 0.9581 ± 0.0017 |
| AGGGGTGTCT | 1.03 ± 0.017 |
| AGGGGTTCCG | 0.979 ± 0.042 |
| AGGGGTTGGC | 0.958 ± 0.056 |
| AGGGGTTGGG | 0.992 ± 0.061 |
| AGGGGTTGTA | 0.971 ± 0.02 |
| AGGGGTTTCT | 0.984 ± 0.016 |
| AGGGTAAAGT | 0.98 ± 0.018 |
| AGGGTAACTT | 1.01 ± 0.023 |
| AGGGTAAGGT | 1.04 ± 0.082 |
| AGGGTAATGC | 1.11 ± 0.09 |
| AGGGTAATGT | 0.9718 ± 0.0036 |
| AGGGTAATTA | 0.979 ± 0.029 |
| AGGGTACTTA | 1.05 ± 0.028 |
| AGGGTAGGCC | 1.009 ± 0.0019 |
| AGGGTAGTTT | 0.985 ± 0.045 |
| AGGGTATGAA | 0.998 ± 0.022 |

| Sequence | switch fluorescence ratio |
| --- | --- |
| AGGGTATGTA | 1 ± 0.015 |
| AGGGTATTGG | 0.993 ± 0.028 |
| AGGGTCAGCT | 1.02 ± 0.014 |
| AGGGTCGATG | 1.07 ± 0.073 |
| AGGGTCGGGA | 0.9838 ± 0.0013 |
| AGGGTCTCCG | 1 ± 0.062 |
| AGGGTCTTCG | 1.04 ± 0.012 |
| AGGGTGAACC | 0.99 ± 0.016 |
| AGGGTGACCT | 1.17 ± 0.15 |
| AGGGTGAGAG | 0.965 ± 0.025 |
| AGGGTGAGGT | 0.993 ± 0.022 |
| AGGGTGGGGC | 1.03 ± 0.065 |
| AGGGTGGGTT | 0.9771 ± 0.005 |
| AGGGTGGTGC | 1.03 ± 0.018 |
| AGGGTGGTTG | 0.987 ± 0.058 |
| AGGGTTCCTG | 0.954 ± 0.036 |
| AGGGTTCGGG | 1.01 ± 0.031 |
| AGGGTTGCGC | 1.02 ± 0.019 |
| AGGGTTGGGG | 0.991 ± 0.031 |
| AGGGTTGTCG | 0.99 ± 0.023 |
| AGGGTTTCCG | 1.03 ± 0.038 |
| AGGGTTTGGT | 0.982 ± 0.02 |
| AGGTAAAGGG | 0.996 ± 0.04 |
| AGGTAAATGT | 0.972 ± 0.023 |
| AGGTAAATTC | 2.33 ± 0.63 |
